Laboratory results published in PMC2891831, “Insight into the Mechanisms of Adenovirus Capsid Disassembly from Studies of Defensin Neutralization” (PLoS Pathogens, 2010).

Experiments:
Ad5.F35 = test: Sensitivity of Ad5.F35 to HD5; assay type: cell-based, human adenovirus; conditions: data not shown; compared with HAdV-5 and HAdV-35
GYAR virus = test: Infection assay, GYAR virus; assay type: cell-based, human adenovirus; conditions: 5 µM HD5, A549 cells, at least three independent experiments
Protocol: Figure 6 Neutralization determinants are located in fiber and penton base. A) Schematic of chimeric viruses. Capsid proteins are depicted in the order in which they are encoded in the virus genome for HAdV-5 (white) and HAdV-19c (grey). The variable residues in fiber (GYAR and DTET) are indicated for each construct. B) Each of the chimeric viruses was incubated with 5 µM (grey) or 10 µM (black) HD5 and assessed for infectivity on A549 cells. Data are the mean of the percent infectivity compared to control cells infected with each virus in the absence of defensin for at least three independent experiments ± SD. The upper limit for quantification of this assay is 200%.
We then combined the GYAR substitution with the PB substitution in a single construct (PB/GYAR).
(§1) Prior to use in this assay, each virus stock was titrated on A549 cells. A virus concentration was chosen to produce 50–70% maximal signal in the absence of defensin as described below. […] In parallel, wells were infected with two-fold serial dilutions of each virus to establish a standard curve for quantification with an upper limit of 200%. […] Total well fluorescence above background was quantified with ImageJ software. For each virus, samples were quantified by nonlinear regression against the standard curve using Prism software (GraphPad Software, Inc., La Jolla, CA).

HAdV species B2 = test: Infection assay (hexon staining), HAdV species B2; assay type: cell-based, human adenovirus; conditions: 15 µM HD5, A549 cells, hexon staining at ~48 h, vs. no defensin
Protocol: (§2) To determine whether sensitivity to α-defensins is a general property of HAdVs, serotypes representative of HAdV species A–F were tested for infectivity in the presence of 15 µM HD5 or HNP1 (Figure 1). Wild type HAdVs rather than vectors were used for these studies, and infectivity was assessed by staining for hexon production. […] These studies indicate that sensitivity to α-defensins is species specific. In addition, particular HAdV serotypes are not equally sensitive to all defensins, indicating defensin sequence specificity as well.
(§3) Figure 1 Sensitivity to neutralization by alpha-defensins is AdV species specific. HAdVs were incubated with 15 µM HD5 (A) or HNP1 (B) and assessed for infectivity on A549 cells. Data are the mean of the percent infectivity compared to control cells infected with each virus in the absence of defensin for at least three independent experiments ± SD. The upper limit for quantification of this assay is 200%. […]
as §1, with “cells.” for “cells. A virus concentration was chosen to produce 50–70% maximal signal in the absence of defensin as described below.”

HAdV-7p = test: Virus-defensin binding assay, HAdV-7p; design: species or system human adenovirus; conditions: 20 µM HD5, mean of two or three independent experiments ± SD
Source text: Figure 2 HD5 binding to HAdV. A) HD5 binding to a representative defensin-sensitive serotype (HAdV-5) was quantified by an equilibrium-binding assay. Data are the mean of the number of HD5 molecules bound per virion at the indicated HD5 concentrations from at least three independent experiments ± SD. Binding curves were fitted using Prism software. B) Binding of HD5 to additional defensin-sensitive (HAdV-7p) and resistant (HAdV-19c, -25p, -51p) serotypes expressed as a percent of HD5 bound to HAdV-5. Data are the mean of two or three independent experiments ± SD.
We assessed HD5 binding to additional serotypes after incubation with 20 µM HD5 (Figure 2B). The sensitive serotype HAdV-7p bound 69.3±15.9% of the amount of HD5 bound to HAdV-5 in parallel samples; whereas, the corresponding values for the resistant serotypes HAdV-19c, -25p, and -51p were 32.5±7.5%, 3.3±5.8%, and 24.6±12.0%, respectively.
To measure HD5 binding to HAdV-5 and -51, HD5 was serially diluted in PBS and mixed with 5 µg purified virus. […] The other half of each sample was used to make a standard curve for quantification. […] Virus bands were quantified using ImageQuant NT software (GE Healthcare). […] The amount of HD5 in the centrifuged samples was then quantified against the standard curve using Prism software. […]

HAdV species A = test: Infection assay (hexon staining), HAdV species A; assay type: cell-based, human adenovirus; conditions: 15 µM HD5, A549 cells, hexon staining at ~48 h, vs. no defensin, at least three independent experiments
Protocol: as §2, §3
as §1, with “cells.” for “cells. A virus concentration was chosen to produce 50–70% maximal signal in the absence of defensin as described below.”

HAdV-41 = test: Infection assay (hexon staining), HAdV-41; assay type: cell-based, human adenovirus; conditions: 15 µM HD5, A549 cells
Protocol: as §2, §3
as §1, with “cells.” for “cells. A virus concentration was chosen to produce 50–70% maximal signal in the absence of defensin as described below.”

[1] = ref [40], [44]; cited from earlier work
Source text: The extensive difference density attributable to HD5 in our cryoEM analysis of Ad5.F35+HD5 is consistent with our estimated stoichiometry. HD5 binding sites were found on all of the major proteins of the capsid. […] The accumulation of HD5 difference density was not equal among the four unique hexon positions in the asymmetric unit but rather was greatest on the peripentonal hexons. Since the possible binding sites presented by each hexon a ...

B1: HD5: human alpha-defensin; synthetic, obtained from Peptides International; three disulfide bonds (PDB 1ZMP) (peptide, UniProt Q01523 20-94, looked up)
Defensin alpha 5: ESLQERADEATTQKQSGEDNQDLAISFAGNGLSALRTSGSQARATCYCRTGRCATRESLSGVCEISGRLYRLCCR
modifications: Defensin-5
- sensitivity of Ad5.F35 to HD5 (Ad5.F35): comparable to that of HAdV-5 and HAdV-35
- sensitivity to HD5 neutralization compared to HAdV-5 (GYAR virus): less sensitive
- sensitivity to neutralization (infectivity) (HAdV species B2): sensitive
- HD5 bound, percent of HD5 bound to HAdV-5 (HAdV-7p): 69.3±15.9%
- sensitivity to neutralization (infectivity) (HAdV species A): sensitive
- sensitivity to HD5 (HAdV-41): resistant
- concentration at which HD5 forms dimers and tetramers [1]: below 5 µM
